Source: paper PMC7954794, “Protein context shapes the specificity of SH3 domain-mediated interactions in vivo” (Nature Communications, 2021)

Tested on: Sla1 PPIs
Assay: DHFR-PCA of Sla1 SH3-swapped, -shuffled or -deleted baits (Fig. 2E, 4B, 4D, S5A)
Format: cell-based, Saccharomyces cerevisiae
Source text: The stuffing of YSC84 SH3 rendered the strain sterile and was therefore not used for this study as the assays require crosses. For genes containing two SH3s (BZZ1 and BEM1), a combination of this first stuffer with a second one ([…]) coding for a highly similar linker ([…]) was used, which allowed targeting each SH3 position independently. The two N-terminal domains of SLA1, which are separated by six nucleotides, were stuffed by a single stuffer. Cells containing pCAS were selected via the G418 resistance cassette from the plasmid on YPD plates (YPD + NAT 100 μg/ml (DHFR F[1,2] selection) + G418 200 µg/mL (Bioshop Canada)). Colonies were randomly selected and grown in YPD media without G418 to allow plasmid loss. The correct insertion of the stuffer was validated by PCR and Sanger sequencing. The SH3-swapped, -shuffled, and -mutated strains were constructed following a second CRISPR–Cas9 editing step with the same procedures. The stuffer sequences were targeted by specific gRNAs (one gRNA per stuffer) and replaced by PCR amplified specific SH3 (with 40 bp homology arms) or libraries of mutated SH3 domains for Deep Mutational Scanning (DMS) with 78 bp flanking homology regions. Validation of the SH3 domain insertions was done as we previously described except for DMS libraries (see below).
The overall DHFR-PCA pipeline is based on Tarassov et al.[43] and the procedures have also been published as a visualized protocol. The screens were performed with robotically manipulated pin tools (BM5-SC1, S&P Robotics Inc.). First, the preys were cherry-picked from 96-well plates to omnitrays in a 384 format on YPD + HPH solid media. Plates were then combined into the 1536 format on YPD + HPH. The array was constituted of 575 preys previously shown to interact physically with at least one SH3-containing protein as reported in BioGRID V3.4.16 along with 40 negative controls. The prey array comprised a border of control strains of two rows and two columns corresponding to the PPI between LSM8-DHFR F[1,2] and CDC39-DHFR F[3]. This double border was used to remove border effects. Preys are present in duplicate at a randomized position in the 1536 array (except for YAL041W which is present four times per array). Baits were crossed with two prey plates, resulting in four independent bait–prey tests for each PPI. Baits were grown in liquid YPD + NAT and then transferred on solid YPD + NAT omnitrays. They were then replicated on YPD + NAT omnitrays in 1536 array format. Mating of DHFR F[1,2] baits with DHFR F[3] preys was done on YPD followed by incubation at 30 °C for 48 h. Two diploid selection steps were performed by replicating the plates on YPD + NAT + HPH and incubating them for 48 h at 30 °C. Pictures were taken at the end of the second diploid selection for quality control. All images were acquired with a EOS Rebel T5i camera (Canon). Finally, the diploid cells were replicated on omnitrays containing solid PCA selection media and incubated for 4 days as a first selection step in a spImager custom robotic platform (S&P Robotics Inc.). Cells were replicated for a second PCA selection step and incubated in the same manner. The last time point of the second PCA selection step was used for the data analysis as in previous studies using this method.
A separate DHFR-PCA screen was performed for the Sla1 SH3 shuffling experiment, with the same analysis as previously described. Three plates had no detectable level of background, which correspond to the second plate of the three Sla1 SH3 WT re-insertion controls. They were attributed the average of the background of the three first plates of the same baits. The threshold was also determined based on the distribution of the PCA scores of all PPIs and corresponds to the top 2.75% of all colonies detected in this experiment. […] Almost all true PPIs are from four replicates (96.2%). […]

B1: SLA1 WT¦WT¦WT (protein, UniProt P32790 1-1244, looked up)
Actin cytoskeleton-regulatory …: MTVFLGIYRAVYAYEPQTPEELAIQEDDLLYLLQKSDIDDWWTVKKRVIGSDSEEPVGLVPSTYIEEAPVLKKVRAIYDYEQVQNADEELTFHENDVFDVFDDKDADWLLVKSTVSNEFGFIPGNYVEPENGSTSKQEQAPAAAEAPAATPAAAPASAAVLPTNFLPPPQHNDRARMMQSKEDQAPDEDEEGPPPAMPARPTATTETTDATAAAVRSRTRLSYSDNDNDDEEDDYYYNSNSNNVGNHEYNTEYHSWNVTEIEGRKKKKAKLSIGNNKINFIPQKGTPHEWSIDKLVSYDNEKKHMFLEFVDPYRSLELHTGNTTTCEEIMNIIGEYKGASRDPGLREVEMASKSKKRGIVQYDFMAESQDELTIKSGDKVYILDDKKSKDWWMCQLVDSGKSGLVPAQFIEPVRDKKHTESTASGIIKSIKKNFTKSPSRSRSRSRSKSNANASWKDDELQNDVVGSAAGKRSRKSSLSSHKKNSSATKDFPNPKKSRLWVDRSGTFKVDAEFIGCAKGKIHLHKANGVKIAVAADKLSNEDLAYVEKITGFSLEKFKANDGSSSRGTDSRDSERERRRRLKEQEEKERDRRLKERELYELKKARELLDEERSRLQEKELPPIKPPRPTSTTSVPNTTSVPPAESSNNNNSSNKYDWFEFFLNCGVDVSNCQRYTINFDREQLTEDMMPDINNSMLRTLGLREGDIVRVMKHLDKKFGRENIASIPTNATGNMFSQPDGSLNVATSPETSLPQQLLPQTTSPAQTAPSTSAETDDAWTVKPASKSESNLLSKKSEFTGSMQDLLDLQPLEPKKAAASTPEPNLKDLEPVKTGGTTVPAAPVSSAPVSSAPAPLDPFKTGGNNILPLSTGFVMMPMITGGDMLPMQRTGGFVVPQTTFGMQSQVTGGILPVQKTGNGLIPISNTGGAMMPQTTFGAAATVLPLQKTGGGLIPIATTGGAQFPQTSFNVQGQQQLPTGSILPVQKTANGLISANTGVSMPTVQRTGGTMIPQTSFGVSQQLTGGAMMTQPQNTGSAMMPQTSFNAVPQITGGAMMPQTSFNALPQVTGGAMMPLQRTGGALNTFNTGGAMIPQTSFSSQAQNTGGFRPQSQFGLTLQKTGGIAPLNQNQFTGGAMNTLSTGGVLQQQQPQTMNTFNTGGVMQELQMMTTFNTGGAMQQPQMMNTFNTDGIMQQPQMMNTFNTGGAMQQPQQQALQNQPTGFGFGNGPQQSRQANIFNATASNPFGF
Prey YAL005C, 4 replicates
  medrep = log2 median colony size normalized to plate background (PCA score): 4.576
Prey YAL005C, 4 replicates, listed as SLA1 WT¦WT¦WT*
  medrep = log2 median colony size normalized to plate background (PCA score): 5.708
Prey YBL007C, 4 replicates
  medrep = log2 median colony size normalized to plate background (PCA score): 3.858
Prey YBL007C, 4 replicates, listed as SLA1 WT¦WT¦WT*
  medrep = log2 median colony size normalized to plate background (PCA score): 4.787
Prey YBR234C, 4 replicates
  medrep = log2 median colony size normalized to plate background (PCA score): 4.193
Prey YBR234C, 4 replicates, listed as SLA1 WT¦WT¦WT*
  medrep = log2 median colony size normalized to plate background (PCA score): 5.208
Prey YCR009C, 2 replicates
  medrep = log2 median colony size normalized to plate background (PCA score): 2.175
Prey YCR030C, 4 replicates
  medrep = log2 median colony size normalized to plate background (PCA score): 2.158
Prey YCR088W, 4 replicates
  medrep = log2 median colony size normalized to plate background (PCA score): 3.971
Prey YCR088W, 4 replicates, listed as SLA1 WT¦WT¦WT*
  medrep = log2 median colony size normalized to plate background (PCA score): 4.931
Prey YDL229W, 4 replicates
  medrep = log2 median colony size normalized to plate background (PCA score): 4.158
Prey YDL229W, 4 replicates, listed as SLA1 WT¦WT¦WT*
  medrep = log2 median colony size normalized to plate background (PCA score): 5.378
Prey YDR129C, 4 replicates
  medrep = log2 median colony size normalized to plate background (PCA score): 3.756
Prey YDR129C, 4 replicates, listed as SLA1 WT¦WT¦WT*
  medrep = log2 median colony size normalized to plate background (PCA score): 4.737
Prey YFL010C, 2 replicates
  medrep = log2 median colony size normalized to plate background (PCA score): 3.147
Prey YFR024C-A, 4 replicates
  medrep = log2 median colony size normalized to plate background (PCA score): 3.943
Prey YFR024C-A, 4 replicates, listed as SLA1 WT¦WT¦WT*
  medrep = log2 median colony size normalized to plate background (PCA score): 4.815
Prey YGL206C, 4 replicates
  medrep = log2 median colony size normalized to plate background (PCA score): 3.77
Prey YGL206C, 4 replicates, listed as SLA1 WT¦WT¦WT*
  medrep = log2 median colony size normalized to plate background (PCA score): 4.526
Prey YGR229C, 4 replicates
  medrep = log2 median colony size normalized to plate background (PCA score): 2.045
Prey YHR016C, 4 replicates
  medrep = log2 median colony size normalized to plate background (PCA score): 3.008
Prey YHR016C, 4 replicates, listed as SLA1 WT¦WT¦WT*
  medrep = log2 median colony size normalized to plate background (PCA score): 3.247
Prey YHR064C, 4 replicates
  medrep = log2 median colony size normalized to plate background (PCA score): 3.59
Prey YHR064C, 4 replicates, listed as SLA1 WT¦WT¦WT*
  medrep = log2 median colony size normalized to plate background (PCA score): 4.449
Prey YIL062C, 4 replicates
  medrep = log2 median colony size normalized to plate background (PCA score): 3.558
Prey YIL062C, 4 replicates, listed as SLA1 WT¦WT¦WT*
  medrep = log2 median colony size normalized to plate background (PCA score): 4.388
Prey YIR006C, 4 replicates
  medrep = log2 median colony size normalized to plate background (PCA score): 3.754
Prey YIR006C, 4 replicates, listed as SLA1 WT¦WT¦WT*
  medrep = log2 median colony size normalized to plate background (PCA score): 4.634
Prey YKL013C, 4 replicates
  medrep = log2 median colony size normalized to plate background (PCA score): 3.269
Prey YKL013C, 4 replicates, listed as SLA1 WT¦WT¦WT*
  medrep = log2 median colony size normalized to plate background (PCA score): 3.776
Prey YKL054C, 4 replicates
  medrep = log2 median colony size normalized to plate background (PCA score): 2.47
Prey YKL054C, 4 replicates, listed as SLA1 WT¦WT¦WT*
  medrep = log2 median colony size normalized to plate background (PCA score): 3.124
Prey YKL117W, 4 replicates
  medrep = log2 median colony size normalized to plate background (PCA score): 3.846
Prey YKL117W, 4 replicates, listed as SLA1 WT¦WT¦WT*
  medrep = log2 median colony size normalized to plate background (PCA score): 4.725
Prey YKL129C, 4 replicates
  medrep = log2 median colony size normalized to plate background (PCA score): 2.117
Prey YLR337C, 4 replicates
  medrep = log2 median colony size normalized to plate background (PCA score): 3.738
Prey YLR337C, 4 replicates, listed as SLA1 WT¦WT¦WT*
  medrep = log2 median colony size normalized to plate background (PCA score): 4.734
Prey YLR370C, 4 replicates
  medrep = log2 median colony size normalized to plate background (PCA score): 3.494
Prey YLR370C, 4 replicates, listed as SLA1 WT¦WT¦WT*
  medrep = log2 median colony size normalized to plate background (PCA score): 4.461
Prey YMR109W, 4 replicates
  medrep = log2 median colony size normalized to plate background (PCA score): 2.836
Prey YMR109W, 4 replicates, listed as SLA1 WT¦WT¦WT*
  medrep = log2 median colony size normalized to plate background (PCA score): 3.116
Prey YNL084C, 4 replicates
  medrep = log2 median colony size normalized to plate background (PCA score): 3.76
Prey YNL084C, 4 replicates, listed as SLA1 WT¦WT¦WT*
  medrep = log2 median colony size normalized to plate background (PCA score): 4.641
Prey YNL138W, 4 replicates
  medrep = log2 median colony size normalized to plate background (PCA score): 2.038
Prey YNL243W, 4 replicates
  medrep = log2 median colony size normalized to plate background (PCA score): 3.418
Prey YNL243W, 4 replicates, listed as SLA1 WT¦WT¦WT*
  medrep = log2 median colony size normalized to plate background (PCA score): 4.392
Prey YOR181W, 4 replicates
  medrep = log2 median colony size normalized to plate background (PCA score): 3.933
Prey YOR181W, 4 replicates, listed as SLA1 WT¦WT¦WT*
  medrep = log2 median colony size normalized to plate background (PCA score): 4.903
